Values quoted from earlier work as cited in PMC7702019 (ACS chemical biology, 2020).
Bridges are numbered along the chain shown (N, C = ends). Where no end group is shown, it is not given here.

Details: for amyloidogenicity: under normal conditions, rat and mouse amylin

rat amylin: contains prolines at position 25, 28, and 29 and a H18R replacement relative to human amylin
amyloid formation in vitro (in vitro, reference not given): form amyloid in vitro, but only at very high non-physiological conditions
amyloidogenicity: not amyloidogenic under normal conditions

bovine amylin: bovine amylin (CGTATCETQRLANFLAPSSNKLGAIFSPTKMGSNTY; ends and bridges not checked; cysteine pairing not given here; UniProt Q28207 37-72, looked up)
amyloidogenicity relative to human amylin (porcine and bovine amylin): much less amyloidogenic than human amylin

mouse amylin: identical sequence to rat amylin
amyloidogenicity: not amyloidogenic under normal conditions

H18R: H18R substitution of human amylin (literature) (KCNTATCATQRLANFLVRSSNNFGAILSSTNVGSNTY; ends and bridges not checked; cysteine pairing not given here; UniProt P10997 34-70, looked up, variant H18R)
rate of amyloid formation in vitro (substitution in human amylin, in vitro): reduces the rate of amyloid formation

Pramlintide: triple mutant of human amylin with A25, S28, and S29 replaced by Pro (KCNTATCATQRLANFLVHSSNNFGPILPPTNVGSNTY-NH2; disulfide 2-7; UniProt P10997 34-70, looked up, variant A25P S28P S29P)
amyloidogenicity in vitro (pramlintide, reference not given): not amyloidogenic in vitro, except at high concentrations
